This passage reports K half results from article PMC2409434.

For this data set, the system named is ArgR (arginine repressor) (Escherichia coli). Description: EMSA. The note with it: EMSA essentially as Burke et al. 1994 with 1 mM L-arginine; ArgR dilution buffer 20 mM Tris-HCl pH 8.2, 20 mM MgCl2, 150 mM NaCl, 5 mM DTT, 1 ug/ml BSA, 0.01% …. On the technique in general: In EMSA bound probe runs differently from free probe, usually more slowly.

Consider cer 190 bp Arg-box fragment, for which the K half amounted to 10 nM. Then “loxP 198 bp fragment (P1 putative Arg-box)”, with more than 200 nM.
